According to PMC7570111, “Iron-Sulfur Cluster Complex Assembly in the Mitochondria of Arabidopsis thaliana” (Plants, 2020):

Experiments:
[1] = molecular target: T1, AtNFS1 alone (Arabidopsis thaliana, UniProt O49543); experiment: L-alanine production, ninhydrin colorimetric assay at […] nm; assay type: biochemical; details: no AtFH or AtISD11, 25 mM Tris-HCl pH 8, 100 mM NaCl, 10 uM PLP, 100 uM DTT, 37 °C, low activity
T1 construct: gene NIFS1; mature form, pET32a with His6 tag and TEV site, codon-optimised, E. coli expression; about 48 kDa with His6
T1 sequence (O49543 35-453): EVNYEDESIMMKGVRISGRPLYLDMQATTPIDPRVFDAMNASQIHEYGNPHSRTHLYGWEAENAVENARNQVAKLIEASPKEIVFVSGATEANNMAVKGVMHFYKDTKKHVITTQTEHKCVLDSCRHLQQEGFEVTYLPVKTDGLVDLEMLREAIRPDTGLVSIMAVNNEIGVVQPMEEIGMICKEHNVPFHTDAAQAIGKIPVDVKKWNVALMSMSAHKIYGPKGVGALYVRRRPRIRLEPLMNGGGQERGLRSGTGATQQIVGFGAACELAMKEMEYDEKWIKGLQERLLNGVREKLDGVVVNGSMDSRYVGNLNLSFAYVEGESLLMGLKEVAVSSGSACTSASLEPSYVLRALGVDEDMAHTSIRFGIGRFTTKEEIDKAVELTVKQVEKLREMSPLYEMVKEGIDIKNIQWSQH

[2] = molecular target: AtNFS1-His6 (cysteine desulfurase AtNFS1 from Arabidopsis thaliana, mature form, His6-tagged) (Arabidopsis thaliana) (UniProt O49543)
[3] = molecular target: AtNFS1-His6 (cysteine desulfurase AtNFS1 from Arabidopsis thaliana, mature form, His6-tagged) (Arabidopsis thaliana) (UniProt O49543); remark: listed apart in the source

Row | attenuation of the Fenton reaction (decrease in malondialdehyde produced from dRibose, Fe(II) and H2O2) with AtFH, AtNFS1 and AtISD11 together (30 uM each); AtFH alone about 40% [2] [%] | cysteine desulfurase activity of AtNFS1 in the presence of AtFH and AtISD11 (1:1:1 molar ratio), Vmax [3] [U/mg] | Molecule | L-alanine production, ninhydrin colorimetric assay at 565 nm [1]
1 |  |  | N[C@@H](CS)C(=O)O [L-cysteine] | in the presence of its substrates, AtNFS1 alone shows low cysteine desulfurase activity
2 | 80 | 47.8 | AtFH (frataxin from Arabidopsis thaliana, mature form, without His6 tag) (natural protein) | 
